7 molecules from US20260226189A1 (PHILOGEN S P A, published 2026) can be followed below.

As usually defined, the Kd is the concentration at which binding is half-saturated. As a reminder, the EC50 is the concentration that produces a half-maximal response.

The target in test [1] is T1, human CEA (N-terminal domain) recombinant fragment containing a C-terminal 6xHis tag and a N-terminal BirA … (human, site specifically biotinylated using BirA (E. coli biotin ligase) at the BirA target sequence).
T1 construct: Expressed in CHO-S cells and immobilised on a streptavidin chip for all BIAcore runs; also called biotinylated CEA; human CEA N-terminal fragment
T1 chain: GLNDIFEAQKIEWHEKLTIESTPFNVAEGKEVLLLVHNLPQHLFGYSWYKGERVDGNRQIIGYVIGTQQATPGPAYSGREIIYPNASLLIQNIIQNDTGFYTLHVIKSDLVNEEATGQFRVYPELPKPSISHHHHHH
In words: SPR (BIAcore X100), monomeric scFv over biotinylated CEA N-terminal domain on streptavidin chip. A general note: SPR reads the build-up and loss of mass on a sensor chip optically.

The target of test [2] is T2, human carcinoembryonic antigen (CEA, CEACAM5) on cells or tumor tissue (human, UniProt P06731 35-685).
T2 sequence (looked up): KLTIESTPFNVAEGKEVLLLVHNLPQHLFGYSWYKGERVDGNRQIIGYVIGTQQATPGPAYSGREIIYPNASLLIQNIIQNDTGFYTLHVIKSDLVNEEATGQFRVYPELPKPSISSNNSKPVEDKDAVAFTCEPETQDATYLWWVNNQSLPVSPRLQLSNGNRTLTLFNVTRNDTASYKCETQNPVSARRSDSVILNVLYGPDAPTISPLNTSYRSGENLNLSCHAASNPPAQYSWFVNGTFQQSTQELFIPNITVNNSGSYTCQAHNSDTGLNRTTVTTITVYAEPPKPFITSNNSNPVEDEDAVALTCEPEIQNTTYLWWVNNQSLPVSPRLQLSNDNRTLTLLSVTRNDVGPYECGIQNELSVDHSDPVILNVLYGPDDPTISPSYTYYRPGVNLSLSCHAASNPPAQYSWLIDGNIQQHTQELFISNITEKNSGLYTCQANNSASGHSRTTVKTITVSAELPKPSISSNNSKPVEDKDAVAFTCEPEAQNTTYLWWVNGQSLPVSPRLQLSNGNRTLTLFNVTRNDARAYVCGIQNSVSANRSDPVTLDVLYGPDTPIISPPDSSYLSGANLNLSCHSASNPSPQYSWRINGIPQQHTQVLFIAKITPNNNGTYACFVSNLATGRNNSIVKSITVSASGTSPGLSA
In words: cell-based or functional assay.

In test [3] the target is T2, human carcinoembryonic antigen (CEA, …). In words: immunofluorescence on LS174T tumor cryosections, FITC-labelled IgG1.
For test [4] the target is unchanged. In words: flow cytometry titration on CT26-CEA cells, IgG1, PE anti-human IgG Fc detection; the CT26-wt curve stays near 0. (Flow cytometry measures light scatter and fluorescence of single cells or particles in a stream.)

B1: F7 antibody in scFv format (scFv)
scFv: EVQLLESGGGLVQPGGSLRLSCAASGFTFSRTAMSWVRQAPGKGLEWVSAISGSGGSTYYADSVKGRFTISRDNSKNTLYLQMNSLRAEDTAVYYCAKLTYARFDYWGQGTLVTVSSGGGGSGGGGSGGGGEIVLTQSPGTLSLSPGERATLSCRASQSVSFPYLAWYQQKPGQAPRLLIYGASSRATGIPDRFSGSGSGTDFTLTISRLEPEDFAVYYCQQSGRVPWTFGQGTKVEIK
notes: also called F7 scFv
With B1, the Kd in test [1] is 50 nM.

B2: PEA2 antibody in scFv format (scFv)
scFv: EVQLLESGGGLVQPGGSLRLSCAASGFTFSRTAMSWVRQAPGKGLEWVSAIDYDGGVTYYADSVKGRFTISRDNSKNTLYLQMNSLRAEDTAVYYCAKLTYARFDYWGQGTLVTVSSGGGGSGGGGSGGGGEIVLTQSPGTLSLSPGERATLSCRASQSVSQNHLAWYQQKPGQAPRLLIYLASRRHTGIPDRFSGSGSGTDFTLTISRLEPEDFAVYYCQQSGRVPWTFGQGTKVEIK
notes: also called PEA2 scFv
On to B2, for which the Kd in test [1] was found to be 7.7 nM.

B3: PEA2-anti-CD3 (PUB4) bispecific antibody in scDb-scFv with Fc KIH format (bispecific antibody, human IgG4 S228P)
heavy 1: EVQLLESGGGLVQPGGSLRLSCAASGFTFSRTAMSWVRQAPGKGLEWVSAIDYDGGVTYYADSVKGRFTISRDNSKNTLYLQMNSLRAEDTAVYYCAKLTYARFDYWGQGTLVTVSSGGSGGEIVLTQSPGTLSLSPGERATLSCRASQSVSQNHLAWYQQKPGQAPRLLIYLASRRHTGIPDRFSGSGSGTDFTLTISRLEPEDFAVYYCQQSGRVPWTFGQGTKVEIKGGGGSGGGGSGGGGSEVQLLESGGGLVQPGGSLRLSCAASGFTFSRTAMSWVRQAPGKGLEWVSAIDYDGGVTYYADSVKGRFTISRDNSKNTLYLQMNSLRAEDTAVYYCAKLTYARFDYWGQGTLVTVSSGGSGGEIVLTQSPGTLSLSPGERATLSCRASQSVSQNHLAWYQQKPGQAPRLLIYLASRRHTGIPDRFSGSGSGTDFTLTISRLEPEDFAVYYCQQSGRVPWTFGQGTKVEIKGSESKYGPPCPPCPAPEFLGGPSVFLFPPKPKDTLMISRTPEVTCVVVDVSQEDPEVQFNWYVDGVEVHNAKTKPREEQFNSTYRVVSVLTVLHQDWLNGKEYKCKVSNKGLPSSIEKTISKAKGQPREPQVYTLPPCQEEMTKNQVSLWCLVKGFYPSDIAVEWESNGQPENNYKTTPPVLDSDGSFFLYSRLTVDKSRWQEGNVFSCSVMHEALHNHYTQKSLSLSLGK
heavy 2: EVQLVESGGGLVQPGGSLRLSCAASGFTFSTYAMNWVRQAPGKGLEWVGRIRSKYNNYATYYADSVKDRFTISRDDSKNSLYLQMNSLKTEDTAVYYCVRHGNFGNSYVSWFAYWGQGTLVTVSSGGGGSGGGGSGGGGSQAVVTQEPSLTVSPGGTVTLTCRSSTGAVTTSNYANWVQQKPGQAPRGLIGGTNKRAPWTPARFSGSLLGGKAALTITGAQAEDEADYYCALWYSNLWVFGGGTKLTVLGSESKYGPPCPPCPAPEFLGGPSVFLFPPKPKDTLMISRTPEVTCVVVDVSQEDPEVQFNWYVDGVEVHNAKTKPREEQFNSTYRVVSVLTVLHQDWLNGKEYKCKVSNKGLPSSIEKTISKAKGQPREPQVCTLPPSQEEMTKNQVSLSCAVKGFYPSDIAVEWESNGQPENNYKTTPPVLDSDGSFFLVSRLTVDKSRWQEGNVFSCSVMHEALHNHYTQKSLSLSLGK
In the case of B3, in test [2], the “EC50, target cell killing (LS174T cells with human PBMCs, 5 days)” value was determined as 40 PM and the “fold potency in target cell killing against the scFvCD3-IgGCEA KIH format” value is 3.5 fold.

B4: PEA2-anti-CD3 (PUB4) bispecific antibody in scFv-IgG4 KIH format (bispecific antibody)
heavy 1: EVQLVESGGGLVQPGGSLRLSCAASGFTFSTYAMNWVRQAPGKGLEWVGRIRSKYNNYATYYADSVKDRFTISRDDSKNSLYLQMNSLKTEDTAVYYCVRHGNFGNSYVSWFAYWGQGTLVTVSSGGGGSGGGGSGGGGSQAVVTQEPSLTVSPGGTVTLTCRSSTGAVTTSNYANWVQQKPGQAPRGLIGGTNKRAPWTPARFSGSLLGGKAALTITGAQAEDEADYYCALWYSNLWVFGGGTKLTVLGGGGSGGGGSGGGGSEVQLLESGGGLVQPGGSLRLSCAASGFTFSRTAMSWVRQAPGKGLEWVSAIDYDGGVTYYADSVKGRFTISRDNSKNTLYLQMNSLRAEDTAVYYCAKLTYARFDYWGQGTLVTVSSASTKGPSVFPLAPCSRSTSESTAALGCLVKDYFPEPVTVSWNSGALTSGVHTFPAVLQSSGLYSLSSVVTVPSSSLGTKTYTCNVDHKPSNTKVDKRVESKYGPPCPPCPAPEFLGGPSVFLFPPKPKDTLMISRTPEVTCVVVDVSQEDPEVQFNWYVDGVEVHNAKTKPREEQFNSTYRVVSVLTVLHQDWLNGKEYKCKVSNKGLPSSIEKTISKAKGQPREPQVYTLPPCQEEMTKNQVSLWCLVKGFYPSDIAVEWESNGQPENNYKTTPPVLDSDGSFFLYSRLTVDKSRWQEGNVFSCSVMHEALHNHYTQKSLSLSLGK
heavy 2: EVQLLESGGGLVQPGGSLRLSCAASGFTFSRTAMSWVRQAPGKGLEWVSAIDYDGGVTYYADSVKGRFTISRDNSKNTLYLQMNSLRAEDTAVYYCAKLTYARFDYWGQGTLVTVSSASTKGPSVFPLAPCSRSTSESTAALGCLVKDYFPEPVTVSWNSGALTSGVHTFPAVLQSSGLYSLSSVVTVPSSSLGTKTYTCNVDHKPSNTKVDKRVESKYGPPCPPCPAPEFLGGPSVFLFPPKPKDTLMISRTPEVTCVVVDVSQEDPEVQFNWYVDGVEVHNAKTKPREEQFNSTYRVVSVLTVLHQDWLNGKEYKCKVSNKGLPSSIEKTISKAKGQPREPQVCTLPPSQEEMTKNQVSLSCAVKGFYPSDIAVEWESNGQPENNYKTTPPVLDSDGSFFLVSRLTVDKSRWQEGNVFSCSVMHEALHNHYTQKSLSLSLGK
light: EIVLTQSPGTLSLSPGERATLSCRASQSVSQNHLAWYQQKPGQAPRLLIYLASRRHTGIPDRFSGSGSGTDFTLTISRLEPEDFAVYYCQQSGRVPWTFGQGTKVEIKRTVAAPSVFIFPPSDEQLKSGTASVVCLLNNFYPREAKVQWKVDNALQSGNSQESVTEQDSKDSTYSLSSTLTLSKADYEKHKVYACEVTHQGLSSPVTKSFNRGEC
Turning to B4, the “EC50, target cell killing (LS174T cells with human PBMCs, 5 days)” value in test [2] came out at 140000 nM.

B5: anti-hen egg lysozyme antibody KSF in IgG1 format (antibody, V domains shown)
VH: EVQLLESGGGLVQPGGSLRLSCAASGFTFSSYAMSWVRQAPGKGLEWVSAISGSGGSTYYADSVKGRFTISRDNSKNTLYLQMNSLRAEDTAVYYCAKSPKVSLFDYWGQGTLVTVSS
VL: SSELTQDPAVSVALGQTVRITCQGDSLRSYYASWYQQKPGQAPVLVIYGKNNRPSGIPDRFSGSSSGNTASLTITGAQAEDEADYYCNSSPLNRLAVVFGGGTKLTVLG
notes: Negative control; It was conjugated to FITC for the immunofluorescence experiments; also called KSF IgG1; KSF (IgG1)
B5: the binding result in test [3] is listed as “no binding (tested: 10 ug/mL)”.

B6: F7 antibody in IgG1 format (antibody, V domains shown)
VH: EVQLLESGGGLVQPGGSLRLSCAASGFTFSRTAMSWVRQAPGKGLEWVSAISGSGGSTYYADSVKGRFTISRDNSKNTLYLQMNSLRAEDTAVYYCAKLTYARFDYWGQGTLVTVSS
VL: EIVLTQSPGTLSLSPGERATLSCRASQSVSFPYLAWYQQKPGQAPRLLIYGASSRATGIPDRFSGSGSGTDFTLTISRLEPEDFAVYYCQQSGRVPWTFGQGTKVEIK
notes: also called F7 IgG
In the case of B6, a half-maximal effect in test [4] (EC50) was put at 0.77 nM.

B7: PEA2 antibody in IgG1 format (antibody, V domains shown)
VH: EVQLLESGGGLVQPGGSLRLSCAASGFTFSRTAMSWVRQAPGKGLEWVSAIDYDGGVTYYADSVKGRFTISRDNSKNTLYLQMNSLRAEDTAVYYCAKLTYARFDYWGQGTLVTVSS
VL: EIVLTQSPGTLSLSPGERATLSCRASQSVSQNHLAWYQQKPGQAPRLLIYLASRRHTGIPDRFSGSGSGTDFTLTISRLEPEDFAVYYCQQSGRVPWTFGQGTKVEIKR
notes: also called PEA2 IgG1; PEA2 (IgG1)
For the molecule B7, the 50% effective concentration (EC50) in test [4] was determined as 0.29 nM.
